Source: article PMC5836512

Key:
[1] = target: ^3xFLAGpIκBα (UniProt P25963); assay: co-IP
[2] = target: Cul1-Rbx1 (Homo sapiens) (UniProt Q13616); conditions: cited from earlier work

Sequence of ^3xFLAGpIκBα (P25963 whole entry): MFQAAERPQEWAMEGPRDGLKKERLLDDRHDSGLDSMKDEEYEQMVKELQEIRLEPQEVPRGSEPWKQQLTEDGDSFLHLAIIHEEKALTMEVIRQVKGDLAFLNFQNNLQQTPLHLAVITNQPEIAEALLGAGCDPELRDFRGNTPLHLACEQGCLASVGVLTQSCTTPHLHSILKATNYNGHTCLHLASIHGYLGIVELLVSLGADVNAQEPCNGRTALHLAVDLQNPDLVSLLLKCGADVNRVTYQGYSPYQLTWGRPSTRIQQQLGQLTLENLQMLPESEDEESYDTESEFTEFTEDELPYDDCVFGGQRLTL
Sequence of Dcn1 (Q96GG9 whole entry): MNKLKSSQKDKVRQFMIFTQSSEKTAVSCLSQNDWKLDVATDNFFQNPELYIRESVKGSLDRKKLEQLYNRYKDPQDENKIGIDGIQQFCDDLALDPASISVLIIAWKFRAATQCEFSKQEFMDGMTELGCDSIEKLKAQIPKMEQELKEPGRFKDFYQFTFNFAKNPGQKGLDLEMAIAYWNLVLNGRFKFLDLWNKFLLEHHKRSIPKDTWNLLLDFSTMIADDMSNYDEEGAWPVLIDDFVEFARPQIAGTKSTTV

| koff [1] | Substance | Kd [2] |
| --- | --- | --- |
| 3.3e-05 s⁻¹ | β-TrCP (from UniProt Q9Y297 1-605) (natural protein) | – |
| – | Dcn1 (from UniProt Q96GG9) | 1.8 µM |
